What was measured:
mmNAGS/K [1] = target: T1, mmNAGS/K (Maricaulis maris, UniProt Q0ASS9); assay: X-ray crystallography (native, […] A); format: binding; settings: modeled in residual density at NAT domain of subunits A and Y; 100 mM glutamate before crystallization; pH 6.5
T1 construct: gene Mmar10_0365; full length (AAK domain 1-290, linker Gly291, NAT domain 292-441); E. coli Rosetta 2; homotetramer
T1 sequence (Q0ASS9 1-441): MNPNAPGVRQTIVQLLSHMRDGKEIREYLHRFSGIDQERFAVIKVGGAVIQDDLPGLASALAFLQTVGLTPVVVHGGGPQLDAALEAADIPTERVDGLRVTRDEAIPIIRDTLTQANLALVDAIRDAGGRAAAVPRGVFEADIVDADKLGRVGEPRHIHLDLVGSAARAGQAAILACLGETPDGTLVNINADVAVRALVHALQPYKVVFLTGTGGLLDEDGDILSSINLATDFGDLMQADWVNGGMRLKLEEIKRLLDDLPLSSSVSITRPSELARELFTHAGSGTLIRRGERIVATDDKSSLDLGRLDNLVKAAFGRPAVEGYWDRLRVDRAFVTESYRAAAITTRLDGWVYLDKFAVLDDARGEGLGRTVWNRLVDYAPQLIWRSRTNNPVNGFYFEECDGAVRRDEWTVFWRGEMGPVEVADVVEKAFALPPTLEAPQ

[2] = target: Se-Met substituted xcNAGS/K (hexagonal crystal form) (Xanthomonas campestris); assay: crystal structure; hexagonal form P6(2)22 of Se-Met xcNAGS/K, one subunit per asymmetric unit, molecular replacement with mmNAGS/K; tetramer made by crystallographic symmetry
[3] = target: Maricaulis maris bifunctional N-acetylglutamate synthase/kinase (mmNAGS/K), wild type (Maricaulis maris MCS10); assay: crystal structure; trigonal form P3(1)21 of native mmNAGS/K, 4.3 A, two subunits per asymmetric unit, molecular replacement with the A-X dimer; 23% PEG400, 100 mM Bis-Tris pH 6.5, 1 mM 5-amino-2,4,6-triiodoisophthalic acid
[4] = target: Maricaulis maris bifunctional N-acetylglutamate synthase/kinase (mmNAGS/K), wild type (Maricaulis maris MCS10); assay: crystal structure; orthorhombic form P2(1)2(1)2(1) of mmNAGS/K, four subunits per asymmetric unit; protein incubated beforehand with 25 mM CoA and 100 mM glutamate; native: 25% PEG3350, 200 mM NaCl, 100 mM Bis-Tris pH 6.5; Se-Met mutant: 25% PEG3350, 200 mM sodium malonate pH 7.0
[5] = target: Maricaulis maris bifunctional N-acetylglutamate synthase/kinase (mmNAGS/K), wild type (Maricaulis maris MCS10); assay: cross-linking; 0.15 ug protein with 0.25 ug dimethyl suberimidate in 50 ul of 200 mM triethanolamine pH 8.25, three hours at 298 K; SDS-PAGE (NuPAGE 4-12% Bis-Tris), Coomassie blue
mmNAGS/K [6] = target: T1, mmNAGS/K; assay: NAGS assay, NAG quantified by LC-MS; format: biochemical; settings: allosteric inhibitor of NAGS activity, not of NAGK activity; 2.5 mM AcCoA, 10 mM L-glutamate, 50 mM Tris-HCl pH 8.5; 293 K in Methods, 310 K in Figure 1 legend
[7] = target: Xanthomonas campestris bifunctional N-acetylglutamate synthase/kinase (xcNAGS/K), recombinant (Xanthomonas campestris); assay: cross-linking; 0.15 ug protein with 0.25 ug dimethyl suberimidate in 50 ul of 200 mM triethanolamine pH 8.25, three hours at 298 K; SDS-PAGE (NuPAGE 4-12% Bis-Tris), Coomassie blue
[8] = target: Se-Met substituted mmNAGS/K triple mutant (I106M, I294M, L376M) (Maricaulis maris MCS10); assay: crystal structure; orthorhombic form P2(1)2(1)2(1) of mmNAGS/K, four subunits per asymmetric unit; protein incubated beforehand with 25 mM CoA and 100 mM glutamate; native: 25% PEG3350, 200 mM NaCl, 100 mM Bis-Tris pH 6.5; Se-Met mutant: 25% PEG3350, 200 mM sodium malonate pH 7.0

N[C@@H](CCC(=O)O)C(=O)O [L-glutamate]
X-ray crystallography (native, 3.1 A) (mmNAGS/K [1]): residual electron density in subunits A and Y at this site that can be modeled as L-glutamate

Se-Met substituted xcNAGS/K (hexagonal crystal form) (enzyme)
stoichiometry N [2]: 4

Maricaulis maris bifunctional N-acetylglutamate synthase/kinase (mmNAGS/K), wild type (enzyme)
stoichiometry N [3]: 4 | stoichiometry N [4]: 4 | stoichiometry N [5]: 4

N=C(N)NCCC[C@H](N)C(=O)O [L-arginine]
fold inhibition of NAGS activity at 1.0 mM (mmNAGS/K [6]): 14 fold

Xanthomonas campestris bifunctional N-acetylglutamate synthase/kinase (xcNAGS/K), recombinant (enzyme)
stoichiometry N [7]: 4

Se-Met substituted mmNAGS/K triple mutant (I106M, I294M, L376M) (enzyme)
stoichiometry N [8]: 4

From paper PMC3236213, “A Novel N-Acetylglutamate Synthase Architecture Revealed by the Crystal Structure of the Bifunctional Enzyme from Maricaulis maris” (PLoS ONE, 2011)
